From a protein production outcome set (Wang et al. 2014)

Test: label from the status in PepcDB records

Row | Sequence | protein production
1 | MKVINVDVAIIGTGTAGMGAYRAAKKHTDKVVLIEGGAYGTTCARVGCMPSKLLIAAADASYHASQTDLFGIQVDRISVNGKAVMKRIQTERDRFVGFVVESVESFDEQDKIRGFAKFLDEHTLQVDDHSQVIAKRIVIATGSRPNYPEFLAAAGSRLLTNDNLFELNDLPKSVAVFGPGVIGLELGQALSRLGVIVKVFGRSGSVANLQDEEMKRYAEKTFNEEFYFDAKARVISTIEKEDAVEVIYFDKSGQKTTESFQYVLAATGRKANVDKLGLENTSIELDKKNSPLFDELTLQTSVDHIFVAGDANNTLTLLHEAADDGKVAGTNAGAYPVIAQGQRRAPLSVVFTEPQVASVGLSLRQIEDLYADQDAANYVVGQVSFEGQGRSRVMGKNKGLLNVYADRTSGEFLGAEMFGPAAEHIGHLLAWARQQQMTVQAMLTMPFYHPVIEEGLRTALRDAQQKLAIEKHDMNEFIMTHDNAMKLVI | not failed
2 | MKVITSLISSILLKFIHKDFHEIYARMSLLDRFLLLIVHGVDKMVPWHKLPVFLGLTYLEVRRHLHQQYNLLNVGQTPTGIRFDPANYPYRTADGKFNDPFNEGVGSQNSFFGRNCPPVDQKSKLRRPDPMVVATKLLGRKKFIDTGKQFNMIAASWIQFMIHDWIDHLEDTHQIELVAPKEVASKCPLSSFRFLKTKEVPTGFFEIKTGSQNIRTPWWDSSVIYGSNSKTLDRVRTYKDGKLKISEETGLLLHDEDGLAISGDIRNSWAGVSALQALFIKEHNAVCDALKDEDDDLEDEDLYRYARLVTSAVVAKIHTIDWTVQLLKTDTLLAGMRANWYGLLGKKFKDSFGHAGSSILGGVVGMKKPQNHGVPYSLTEDFTSVYRMHSLLPDQLHILDIDDVPGTNKSLPLIQEISMRDLIGRKGEETMSHIGFTKLMVSMGHQASGALELMNYPMWLRDIVPHDPNGQARPDHVDLAALEIYRDRERSVPRYNEFRRSMFMIPITKWEDLTEDEEAIEVLDDVYDGDVEELDLLVGLMAEKKIKGFAISETAFYIFLIMATRRLEADRFFTSDFNETIYTKKGLEWVNTTESLKDVIDRHYPDMTDKWMNSESAFSVWDSPPLTKNPIPLYLRIPS | failed
3 | MKVKSISRFFSMKKVTLSFVTLFIGVGTIGSYNQYADASMKTQQTHVTKSSPTQKTTSNFKRSVKDTSVKSRATSIKRATSTKQAISPKTSSTKKTTIAKKSTTVNKTRTTTKTQPTIRKSSTTSTRSKTMPTSVKRTTSHKATTVSPTSKAKISTKTQQSTKSHTTSVKKNTTQLSKTKSPSTSTKSKTVQSSTTKAQPTLSTQVSTTTKAKQFSTPTTSKTDSSKSLVSLASTERKIDKYQSMTQLEKETTEGVDWRKDTKNTGNQVLIVAPHGGSIEQGTTELTKALADKGNYDYYSFEGIRPKNNSELHVTSTHYDDPTLNQMIKNRTATISIHGASGSEEIIYLGGPRSDLRNAIEKQLVARGFTVKVPPEYLGGQNNKNFINREDNNTGVQLELTTALRKAFFKNGDTSTKNRTNKENWTPTMEEFINALYEGINQTYSLEHHHHHH | failed
4 | MKVLETATQVLEWTAHDTQLLVVAALGIALIVVLIAKLKLHPFLALVLGSAFVGLASGVELGKVITNFEDGVGGVLKEVGLLIALGAMLGKLLADSGGANRVVDTLLAKASGNKLVWMITLVAVIIGLPMFFEIGLVLLLPVIVLVTQRSKMKLMRIAIPALAGLSVLHGLVPPHPGPLIAISAVKAELGTTLGLGILVAIPTVIICGPLFSRLAARWVPVDAPAVAGGIDTQHAADLSEVKRQPSFLVTLLTIIFPVVLMLLKALGGIIWPNPETAPAIRIFFDFVGQPLVAMTLAVLLAIVTFGYAVGFTGSRITAKLGESLGPIAAILLIVGAGGGFKQTLIGAGVGDAVKKWAEGANMSVLVLGFIVAVALRLATGSATVATVTAAGIVAPLASSLSPTHAALLALAIGAGSLFLSHVNDAGFWLVKELFGLTVGQTFKTWSVMETLISVVGFGFVMLLSLVL | failed
5 | MKVLKPGLLTTVQDIGRTGYQKYGVLASGAMDTVSLRIANLLIGNGENEAGLEITMMGPGPSFHFSKQTLIAVTGADFTLRINDEEAPLWKPVLIKENSTVSFGPCKLGSRAYLAAAGGIEVPAVMESKSTYVRGSIGGLHGRALQKEDELNIGEMSALSQTILSRLSSQLAHTVIGSTDVVSQPWEISVIEDESRHSSAGGISICLLHSRIKNAFSEEAFRVTPQSDRMGYRLKGEPLDLTAPLEMVSAAVSFGAAQMPPAGKPYYPCLQDRQDDWPAIRGIAHIISADLPIVSQIMPGEHVQFEPVSLQEAEALAVEREQHIKELKTRMKMEWLT | not failed
6 | MKVLLANPRGFCAGVDRAIEIVKRTIDMLGTPIYVRHEVVHNRFVVDDLKQRGAIFVEELHQVPDGATVIFSAHGVSQAVRRQAAQRGLKVFDATCPLVTKVHLDVARHCRTGRDMILIGHAGHPEVEGTMGQWDQERGTGRIYLVENIDDVATLHVAQPHHLAYTTQTTLSVDDTRNIIDALRQRFPTIQGPKNNDICYATQNRQDAVRELARECDLVLVVGSPNSSNSNRLSELAQREGVASYLIDSAAEIDPAWVIDKHHIGVTAGASAPQVLVDGVLARLYELGATSVSEHSGKPESMVFALPKALRLQLVD | failed
7 | MKVLLIQPPSSTAFMDKVYMYEPLGLEYLGAGLQEDGHEVLLLDARLEPDFEKAFHSFQPDIVGITGYTNHLNIVKAIAARFKSINPEVFIIVGGHHATVKPADYNDQAIDLIIIGEGVFTLRQVLKHKESLLPFEDIPGLAIPGAVMKFTAERPYTPLDDLPFPDRSLTARYRNHYFSDWMKPIASIRTSLGCFGRCNFCALWSITNGKYLQRNPERIVAELQGIQEEIVFFCDDESMCDTRRMDQLADLIQEAGIRKKYFLYGRVDTIVKHPELFAKWKNIGLIQVFVGFESFSDERLQGLNKNITVAQQEEAVKILNDLNIDIYASFVIDPSFTRQEFTQLIAYTRKLNIAYAALSVLTPLPGTALYEQNKDRLLTHDPKFFDFMHTVLPTALPLKQFYSEYARTLMKATPIPRYFRFIAKFDRQRRLSTMKELYGVVGDVRKGYQWHQAKES | failed
8 | MKVNKRVLSIGLAISLIMAGAPNINALSSIEKIQGKDRYETAAKIAQKQTYENVVLVNTDNTLADGLSASGLAGTVKAPILLSQRNSIPSDTEKMLKDVKKVYIIGTEDSIGKSVENELKQKGIEVKRIGGNDRIETSYLIAKEIASIKPIDKVFITNGYTGEADAMSASSVASRDGAPIILTNGKNVPFEKKEGVQCYALGSEEIISNDLVKKTNSVRLAGEDRFETNKKVIKHFYSSAKEFYLSKGYQLVDAVAGSSIAKNAPIVLVDGNSDKSVLRSADKITALGGIDEKTLEQCLSASSLDASAPTITVGNLNIYQGDKFDISKLNIVAKDSNGNDLTPELIGNINTDKVGKYKVTIKATDIGGKTTSISVEVNVLEYKTNDMNSSEFKRMVSSEMYSLVNSYRKEKGKEPLQVSENLQGMANYWSKYMADKGEFAHVINGKNAAEVFSGGIRSEENIAFVPLTTKSTYTTKDAREVANVIFTVWKKSDKYNENMLSSKFAYTGFGLYILPDGQVYATQEFLNK | failed
9 | MKVRAIKSFLVTTMAMTFLVSMGQGSILTKANTINNMKYVTEAFGAIPTEEQVSYQKEELTAFIHFGVNTFTGREWGDGTENPEIFNPTNLDADQWVKTLADAGFGRVILTAKHHDGFCLWDSAYTKHDVASSPWKNGKGDVVKEVSEACAKYNIKFGVYLSPWDQNSEHYGEGNGGDYNEFYMNQLRELLTNYGPIAEVWMDGAKGSNVKQEYNFEEWFALIKELQPECLIFSPQGPDIRWIGNEKGYAGEPCWSTIDIEKMKERENPTYLNNGEEGGPDWVVGESDVSIRPGWFYHESQDNEVKSLEKMMDIYFKSIGRNSVLLLNVPPNKEGKLHENDVNRLKEFGETIKELFNDDLALNKEVIVDGFANRDETYGANKIVDGDYDTYWAPDNSSKTGTIEIDLGESKEFDVISLQEYIPLGQRVSSFNVEVLQGENWNKVYEGKTIGYKRLVRIAPTKGEKIRINITGSLEVPLINNVGVYKQPTSIELPSGPPAGLKVLNDDNKGNELEQFNFSDGWVYETIHGENDLGGDAHYTSKTNATVNIKFNGTKFFLSGTKDSGHGIMEISIDGENPVEVDLYSPNRKSKEIVFESEDLSDGEHEVTVKCTGRKNSSSRGTAAHIDGAYVLDNGGKGMVEFEKVGYEVSENIGTATFKVIRKGGSNGKLEVNYDTLAGTALNGVDYQTWSGTLAFNEGETEKTFDITIIDDKEKEEPKEFYLKLSDPIGGILGFNSRATVTINDDEQIK | failed
10 | MKVTQNENLKLAQRGAFLSLVIYIILSIAKYMTGYVYDSAAVRADALNNMTDILVSVAVIVGLKISIKPADQNHPYGHLKSENISTLLVSFIIMFVGIQVIIENFPRLFTHDSHIPNFITIIISMISGLVMLCVFAINYRLSKRTKSSSLKSAAKDNLSDSLVSIGTAIGLMFTQIGFPIIDIILANILGLLIVYTGFGIFKESIFTLSDGFNEQDLEEYRLDILEVEDVIDVNNIKGRYHGSSIFIDVTIVVDPYLSLYEAHQICDKVEIHLHNKGISSVYVHPEPYTTKDEVK | failed
11 | MKVTVVSRSGREVLKAPLDLPDSATVADLQEAFHKRAKKFYPSRQRLTLPVTPGSKDKPVVLNSKKSLKEYCDGNNNSLTVVFKDLGAQVSYRTLFFFEYLGPLLIYPVFYYFPVYKFLGYGEDCVIHPVQTYAMYYWCFHYFKRILETFFVHRFSHATSPIGNVFRNCAYYWSFGAYIAYYVNHPLYTPVSDLQMKIGFGFGLVCQVANFYCHILLKNLRDPSGAGGYQIPRGFLFNIVTCANYTTEIYQWLGFNIATQTIAGYVFLAVAALIMTNWALGKHSRLRKIFDGKDGKPKYPRRWVILPPFL | failed
12 | MKVYDVTAPIYEGMPVYKNKPEKQPKRTTITNGYVTESRIDMDVHTGTHIDAPLHMVEGGATFETIPLNDLVGPCKLFDLTHVNDRITKDDIAHLDIQEGDFVLFKTKNSFEDAFHFEFIFVAEDAARYLADKQIRGVGIDALGIERAQEGHPTHKTLFSAGVIIIEGLRLKDVPEGRYFMVAAPLKLVGTDAAPARVLLFDREP | not failed
13 | MKWSEISIHTTEEAVEAVSHILHEAGASGVAIEDPAELTKEREQQYGEIYALNPDEYPAEGVLIKAYFPQTDSLHETIAGVKSSIDVLPSYDIEIGTGNITVNEVNEEDWATAWKKYYHPVQISDTFTIVPTWEEYTPSSPEEKIIELDPGMAFGTGTHPTTTMCIRALEKTVQPGDTIIDVGTGSGVLSIAAAKLGASSVQAYDLDPVAVESAEMNVRLNKTDDVVSVGQNSLLEGIEGPVDLIVANLLAEIILLFPEDAARVVKSGGLFITSGIIAAKEKVISEALEKAGFTIEEVLRMEDWVAIIARNA | failed
14 | MKYDVVVVGSGVAGPIVARDVAKAGFSVLLVDKKPAIGTPKQCAEGINVNVFKEFDIPYDKRFINREIYGARIYSPSGYTAELRYDKVSGVILERKVFDKMLAYYAAKAGADVWARTEVIDLLRKEGKIMGVKAKHEGELVEIEAKIIVAADGVESTVARLAGINTYAPPHEFDSAYEYEMIIEGYDPDLIHLWFGNEIAPRGYVWVFPKDEDRANVGIGINSDNEKTAKYYLDKWLKENNIPTKKILEINVGLVPVGGFVRELVKENVAVVGDAARQVNPVHGGGMYEAMKAANILAKWIVKALEEENLELLKNYTKEWWEVEGPKMERLLKLRRAMEKLTDEDIDVFVQLLGGTDLEKLAGGNYFEVVKALMKHPKVLMSKRRLEILKALL | not failed
15 | MKYIIIGLGNYGGVLAEELSVLGHEVIGVDTNEHRVDVLKDKIATSFIIDATDEQSLSVLPLKDVDVVIVAIGENFGASVRVVALLKKKGVKHIYARAVDDVHKTVLEAFNLDSILTPEKEAARSLVQLLDLHVNVESFQIDEEHYVMKFKLPSCFVGYKVSDLSLETEFNIKIIALIKGEKVLNGLGISILEHQVENHFEENYELEEEDQLVCYGLYKNFMDFWKAL | failed
16 | MKYIINHSNDTAFNIALEEYAFKHLLDEDQIFLLWINKPSIIVGRHQNTIEEINRDYVRENGIEVVRRISGGGAVYHDLNNLNYTIISKEDENKAFDFKSFSTPVINTLAQLGVKAEFTGRNDLEIDGKKFCGNAQAYINGRIMHHGCLLFDVDLSVLANALKVSKDKFESKGVKSVRARVTNIINELPKKITVEKFRDLLLEYMKKEYPEMTEYVFSEEELAEINRIKDTKFGTWDWNYGKSPEFNVRRGIKFTSGKVEVFANVTESKIQDIKIYGDFFGIEDVAAVEDVLRGVKYEREDVLKALKTIDITRYFAGISREEIAEAVVG | not failed
